# In the RNAGym collection of RNA variant scans (doi:10.1073/pnas.2313332121):
# B1: TPR t1 (parent)
# chain: GACCAAUCUGCCCUCAGAGCUCGAGAACAUCUUCGGAUGCAGAGGAGGCAGGCUUCGGUGGCGCGAUAGCGCCAACGUCCUCAACCUCCAAUGCAUCCCACCACAUGAUGAUGCCUGAAGAGCCUUGGUUUUUUG
# Variants of: B1
# Assay: polymerase ribozyme fitness, log enrichment relative to wild type (log ratio); higher = more active; in vitro selection for triplet polymerase activity
# In short: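 A heterodimeric triplet polymerase ribozyme had each of its subunits mutagenized by PCR into a library, which was transcribed. One round of in vitro selection, done in triplicate, annealed each library with a biotinylated primer, its partner subunit and triplets, then incubated it frozen at −7 °C before gel excision of extended constructs, streptavidin-bead capture and RT-PCR. Fitness is the logarithm of genotype enrichment relative to wild-type enrichment, based on Illumina sequencing of inputs and outputs and inverse-variance-weighted replicate averages. A base-2 logarithm is used, and genotypes were kept only with ≥10 input reads and ≥1 read per output.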
row,Variant,polymerase ribozyme fitness (log ratio)
1,GACCAAUCUGCCCUCAGAGCUCGAGAACAUCUUCGGAUGCAGAGGAGGCAGGCUUCGGUGGCUCGAUAGCGCCAACGUACUCAACCUCCAAUGCAUCCCACCACAUGAUUAUGCCUGAAGAGCCUUGGUUUUUUG,-5.14
2,GACCAAUCUGCCCUCAGAGCUCGAGAACAUGUUCGGAUGCAUAGGAGGCAGGCUUCGGUGGCGCGAUAGCGCCAACGUCCUCAACCUCCAAUGCAUCCCACCACAUGAUGAUUCCUGAAGAGCCUUGGUUUUUUG,-5.66
3,GACCAAUCUGGCCUCAGAGCUCGAGAACAUCUUCGGAUGCAGAGGAGGCAGGCUUCGGUGGCGCGAUAGCGCCAACGUGCUAAACCUCCAAUGCAUCCCACCACAUGAUGAUGCCUGAAGAGCCUUGGUUUUUUG,-1.78
4,GACCAAUCUGCCCUCAGAGCUCGAGAACAUCUUCGGAUGCAGAGGAGGCAGGCUUCGGUGGCGCGAUAGCGCCAACGUCCACAACCUCCAAUGCCUCCCACCACAUGAUGAUGCCUGAAGCGCCUUGGUUUUUUG,0.395
5,GACCAAUUUGCCCUCAGAGCUCGAGAACAUCUUCGGAUGCAGUGGAGGCAGGCUUCGAUGGCGCGAUAGCGCCAACGUUCUCAACCUCCAAUGCAUCCCACCACAUGAUGAUCCCUGGAGAGCCUUGGUUUUUUG,-3.06
6,GACCAAUCUGCCCUCAGAGCUCGAGAACAUCUUCGGAUGCAGAGGAGGCCGGCUUCGGUGGUGCGAUAGCGCCAACGUCCUCAACCUCCAAUGCAUCCCACCACAUGAUGAUGCUUGAAGAGCCUUGGUUUUUUG,-2.55
7,GACCAAUCUGCCCUCAGAGCUCGAGAACAUCUUCGGAUGCAGAGGAGGCUGGCUUCGGUGUCGCGAUAGCGCCAACGUCCUCAACCUCCAAUGAAUCCCACCACAUGAUUAUGCCUGAAGAGCCUUGGUUUUUUG,-4.5
8,GACCAAUCUGCCCUCAGAACUCGAGAACAUCUUCGGAUGCUGAGGAGGCAGGAUUCGGUCGCGCGAUAGCGCCAACGUCCUCAACCUCCAAUGCAUCCCACCACAUGAUGAUGCCUGAAGUGCCUUGGUUUUUUG,-5.24
9,GACCAAUCUGCUCUCAGAGCUCGAGAGGAUCUUCGGAUGCAGAGGAGGCAGGCUUCGGUGGCGCGAUAUCGCCAACGUCCUCAACCUCCAAUGCAUCCCACCACAUGAUGAUGCCUGAAGAGCCUUGGUUUUUUG,-2.22
10,GACCAAUCUGUCCUCAGAACUCGAGAACAUCUUCGGAUGCAGAGGAGGUAGGCUUUGGUGGCGCGUUAGCGCCAACGUCCUCAACCUCCAAUGCAUCCCACCACAUGAUGAUGUCUGAAGAGCCUUGGUUUUUUG,-2.83
11,GACCAUUCUGCCCUCAGAGCUCGAGAACAUCUUCGGAUGCAGAGGAGGCAGGCUUCGGUGGCGCGAUAGCGCCAACGUCCUCAACCUCCAAUGCAUCCCACCACACAAUGAUGUCUGAAGAGCCUUGGUUUUUUG,-5.44
12,GACCAAUCUGCCCUCAGAGCUCGAGAACAUCUUUGGAUGCAGAGGAGGCAGGCUUCGGUGGCGUGAUAGCGCCAACGUCCUCAACCUCCAAUACAUCCCACCACCUGAUGAUGUCUGAAGAGCCUUGGUUUUUUG,-5.2
13,GACCAAUGUGCCCUCAGAGCUCGAGAACUUCUUCGGAUGCAGAGGAGGCAGGCUUCGGUGGCGCGAUAGCGCCAACGUCCUCAACCUCCAAUGCAUCCCACCACAUGAUGAUGCCUGAAGAGCCUUGGUUUCUUG,-1.95
14,GACAAAUCUGCCCUCAGAGAUCGAGAACAUCUUCGGAUGCAGAGGAGGCAGGCUUCGGUGGCGCGAUAGCGCCAACGUCCUCAACCUCCAAUGCAUCCCACCACAUGAUGAUGCCUGAAGAGCCUUGGUUUUUUG,-4.2
15,GACCAAUCUGCCCUCAGAGCUCGAGAACAUCUUCGGAUGCAGAGGAGGCAGGCUUCGCUGGAGCGAUAUCGCCAACGUCCUCAACCUCCAAUGCAUCCCACCACAUGAUGAUGCCUGAUGAGCCUUGGUUUUUUG,-0.99
16,GUCCAAUCUGCCCUCAGUGCUCGAGAACUUCUUCGGAUGCUGAGGAGGCAGGCUUCGGUAGCGCGAUAGCGCCAACGUCCUCAACCUCCAAUGCAUCCCACCACAUGAUGAUGCCUGAAGAGCCUUGGUUUUUUG,-5.23
17,GACCAAUCUGCCCUCAGAGCUCGAGAACAUCUUCGGAUCCAGAGGAGGCAGGCUUCGGUGGCGCGAUAGCGCCAAUGUCCUCAACCUCCAAUGCAUCCCACCACAUGAUGAUGCCUGAAGAGCCUGGGUUUUUUG,-2.72
18,GACCAAUCUGCCCUCAGAGCUAAAGAACAUCUUCAGAUGCAGAGGAGGCAGGCUUCGGUGGCGCGAUAGCGCCAACGUCCUGAACCUCUAAUGCAUCCCACCAUAUGAUGUUGCCUGAAGAGCCUUGGUUUUUUG,-6.73
19,GACCAAUCUGGCCUCAGAGCUCGAGAACAUCUUCGGAUGCAGAGGAGGCAGGCUUCGGUGGCGCGAUAGCGCCAACGUCCUCAACCUCCAAUGCAUCCCACCACAUGCUGAUGCCUGAAGAGCCUUGGUUUUUUG,-4.07
20,GACCAAUCUGCCCUCAGAGCUCGAGAACAUCUUCGGAUGCAGAGGAGGCAGGGUUCGGUGGCGCGAUAGCGCCAACGUUCUCAACCUCCAAUGCAUCCCACCACAUGAUGAUGCCUGAAGAACCUUGGUUUUUUG,-3.43
21,GACCAAUCUGCCCUCAGAGCUCGAGAACAUCUUCGGAUGCAUAGGAGGCAGGCUUAGGUGGCGUGAUAGCGCCAACGUCCUCAACCUCCAAUGCAUCCCACCACAUGAUGAUGCCUGAAGAGCCUUGGUUUUUUG,-2.46
